Source: patent publication US20040234998A1

Tests used:
Test in all cases: cell-based or functional assay
[1] = biological target: 980903 (XM1): Purified mutant of Bacillus sub. wild type xylanase expressed in E. coli
[2] = biological target: 980603 (Röhm): Purified preparation of Frimond's Belase xylanase (identical to Röhm's) (Bacillus subtilis)
[3] = biological target: 980601 (BX): Purified preparation of Danisco's new bacterial xylanase expressed in E. coli (Bacillus subtilis) (UniProt P18429)

Substance “endogenous endo-β-1,4-xylanase inhibitor from wheat flour” has a difference in inhibition between XM1 and XM2 [1] of 250%, a residual activity of XM1 relative to rest activity of XM2 [1] of 2.5 times and an Inhibation, % (flour 98002) [2] of 60.8%. For the same substance, the Inhibation, % (flour 98026) [2] was 61.3%, the Rest act., % (Avg) [2] was 39% and the Rest act., % (flour 98002) [2] was 39.2%. For the same substance, the Rest act., % (flour 98026) [2] was 38.7%, the Difference, % (average rest activity of 980601 against 980603) [3] was 25.6% and the Inhibation, % (flour 98002) [3] was 67%. The Inhibation, % (flour 98026) [3] was 75%, the OD 590 (+inhibitor), xylanase activity on Xylazyme [3] was 0.165 OD 590 and the Residual activity, % [3] was 24.4%. It also gave a Rest act., % (Avg) [3] of 29%, a Rest act., % (flour 98002) [3] of 33% and a Rest act., % (flour 98026) [3] of 25%. For the same substance, the Vmax (Lineweaver-Burk plot, relative OD 590, with and without inhibitor) (relative OD 590) [3] was 1.19.
